Experimental data taken from PMC11742113 (Molecular Biology of the Cell, 2025).

Target: T1, S. aureus FtsZ, full length (Staphylococcus aureus, UniProt P0A031 1-390, FITC label, ~0.7 FITC per FtsZ)
T1 sequence: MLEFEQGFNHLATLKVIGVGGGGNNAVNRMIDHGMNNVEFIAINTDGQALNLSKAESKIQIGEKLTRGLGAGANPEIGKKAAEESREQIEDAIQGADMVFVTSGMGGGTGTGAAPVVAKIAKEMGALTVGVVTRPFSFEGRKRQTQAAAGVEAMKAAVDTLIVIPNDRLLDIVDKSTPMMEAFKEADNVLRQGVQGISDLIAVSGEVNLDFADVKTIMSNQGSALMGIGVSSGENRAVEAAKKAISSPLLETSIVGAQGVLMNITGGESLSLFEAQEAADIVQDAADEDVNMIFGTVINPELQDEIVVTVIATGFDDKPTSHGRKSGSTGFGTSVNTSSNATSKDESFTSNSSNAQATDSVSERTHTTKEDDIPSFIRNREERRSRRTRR
Test: other fluorescence titration

B1: S. aureus GpsB (natural protein)
chain: MSDVSLKLSAKDIYEKDFEKTMARGYRREEVDAFLDDIIADYQKMADMNNEVVKLSEENHKLKKELEELRLRVATSRPQDNKSFSSNNTTTNTSSNNVDILKRISNLEKAVFGK
In the case of B1, the Kd is reported as 53.8 ± 8 µM.
